According to patent publication EP4778941A1 (Jiangsu Hengrui Pharmaceuticals Co., Ltd., dated 2025):
Numbering of substitutions follows the chain as printed.

How the values were obtained:
[1] = target: Human HER3 and MET proteins together on HER3/MET double-positive cells (human, UniProt P21860 20-1342; P08581 25-1390); assay: cell-based or functional assay
[2] = target: T1, Human MET protein on the cell surface (human, UniProt P08581 25-1390); assay: FACS on NCI-H1975 cells (MET single-positive), FIG. 3
T1 construct: whole, on cells; also called MET single-positive cells (NCI-H1975, NCI-H1703)
T1 sequence (P08581 25-1390): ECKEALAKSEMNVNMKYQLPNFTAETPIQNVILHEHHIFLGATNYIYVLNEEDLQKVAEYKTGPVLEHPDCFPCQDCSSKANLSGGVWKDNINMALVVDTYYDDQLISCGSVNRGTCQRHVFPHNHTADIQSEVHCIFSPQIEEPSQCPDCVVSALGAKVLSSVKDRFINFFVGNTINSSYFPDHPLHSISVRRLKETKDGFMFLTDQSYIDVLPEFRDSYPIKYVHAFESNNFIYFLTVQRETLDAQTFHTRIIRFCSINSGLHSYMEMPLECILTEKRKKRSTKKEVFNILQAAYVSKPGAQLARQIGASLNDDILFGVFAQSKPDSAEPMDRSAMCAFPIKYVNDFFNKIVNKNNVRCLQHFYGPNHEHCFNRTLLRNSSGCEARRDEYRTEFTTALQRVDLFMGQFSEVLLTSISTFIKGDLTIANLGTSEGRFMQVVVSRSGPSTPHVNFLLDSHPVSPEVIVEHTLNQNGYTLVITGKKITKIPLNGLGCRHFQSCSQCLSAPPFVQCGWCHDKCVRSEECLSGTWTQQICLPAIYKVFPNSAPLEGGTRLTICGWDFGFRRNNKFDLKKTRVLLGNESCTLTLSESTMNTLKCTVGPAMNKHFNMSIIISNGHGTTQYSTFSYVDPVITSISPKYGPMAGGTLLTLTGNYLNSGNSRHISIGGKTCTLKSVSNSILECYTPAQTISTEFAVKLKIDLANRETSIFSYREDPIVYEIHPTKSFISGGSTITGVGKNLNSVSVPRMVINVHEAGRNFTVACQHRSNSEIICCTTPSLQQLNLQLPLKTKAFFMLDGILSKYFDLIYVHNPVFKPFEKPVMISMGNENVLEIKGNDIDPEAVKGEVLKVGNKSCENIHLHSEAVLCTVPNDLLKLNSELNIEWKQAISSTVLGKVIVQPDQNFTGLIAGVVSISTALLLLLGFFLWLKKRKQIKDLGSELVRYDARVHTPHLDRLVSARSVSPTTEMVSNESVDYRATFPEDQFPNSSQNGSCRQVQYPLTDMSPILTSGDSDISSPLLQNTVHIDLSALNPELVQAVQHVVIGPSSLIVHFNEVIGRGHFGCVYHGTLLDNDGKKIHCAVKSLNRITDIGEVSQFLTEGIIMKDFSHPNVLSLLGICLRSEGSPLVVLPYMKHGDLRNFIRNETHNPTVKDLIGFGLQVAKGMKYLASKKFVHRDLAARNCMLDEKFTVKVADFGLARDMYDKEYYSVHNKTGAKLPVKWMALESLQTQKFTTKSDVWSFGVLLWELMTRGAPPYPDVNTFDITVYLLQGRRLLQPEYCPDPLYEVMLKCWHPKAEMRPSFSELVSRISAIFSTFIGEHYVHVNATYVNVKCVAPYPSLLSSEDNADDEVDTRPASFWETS

[3] = target: T2, His-tagged human HER3 antigen (human, UniProt P21860 20-643); assay: SPR, Biacore 8K, protein A chip; ADC captured, His-tagged antigen 6.25-400 nM as analyte; 1:1 Langmuir
T2 construct: Soluble antigen used as analyte in SPR; not shown: His tag

[4] = target: T3, Human HER3 protein on the cell surface (human, UniProt P21860 20-1342); assay: FACS on MDA-MB-453 cells (HER3 single-positive)
T3 construct: whole, on cells; also called HER3 single-positive cells (MDA-MB-453)

[5] = target: T3, Human HER3 protein on the cell surface; assay: cell-based or functional assay
[6] = target: T2, His-tagged human HER3 antigen; assay: SPR, Biacore 8K; antibody captured, His-tagged human HER3 antigen 6.25-400 nM as analyte; 1:1 Langmuir
[7] = target: T1, Human MET protein on the cell surface; assay: cell-based or functional assay
[8] = target: T4, His-tagged human MET antigen (human, UniProt P08581 25-932); assay: SPR, Biacore 8K; antibody captured, His-tagged human MET antigen 6.25-400 nM as analyte; 1:1 Langmuir
T4 construct: Soluble antigen used as analyte in SPR; not shown: His tag
T4 sequence (P08581 25-932 limits assumed): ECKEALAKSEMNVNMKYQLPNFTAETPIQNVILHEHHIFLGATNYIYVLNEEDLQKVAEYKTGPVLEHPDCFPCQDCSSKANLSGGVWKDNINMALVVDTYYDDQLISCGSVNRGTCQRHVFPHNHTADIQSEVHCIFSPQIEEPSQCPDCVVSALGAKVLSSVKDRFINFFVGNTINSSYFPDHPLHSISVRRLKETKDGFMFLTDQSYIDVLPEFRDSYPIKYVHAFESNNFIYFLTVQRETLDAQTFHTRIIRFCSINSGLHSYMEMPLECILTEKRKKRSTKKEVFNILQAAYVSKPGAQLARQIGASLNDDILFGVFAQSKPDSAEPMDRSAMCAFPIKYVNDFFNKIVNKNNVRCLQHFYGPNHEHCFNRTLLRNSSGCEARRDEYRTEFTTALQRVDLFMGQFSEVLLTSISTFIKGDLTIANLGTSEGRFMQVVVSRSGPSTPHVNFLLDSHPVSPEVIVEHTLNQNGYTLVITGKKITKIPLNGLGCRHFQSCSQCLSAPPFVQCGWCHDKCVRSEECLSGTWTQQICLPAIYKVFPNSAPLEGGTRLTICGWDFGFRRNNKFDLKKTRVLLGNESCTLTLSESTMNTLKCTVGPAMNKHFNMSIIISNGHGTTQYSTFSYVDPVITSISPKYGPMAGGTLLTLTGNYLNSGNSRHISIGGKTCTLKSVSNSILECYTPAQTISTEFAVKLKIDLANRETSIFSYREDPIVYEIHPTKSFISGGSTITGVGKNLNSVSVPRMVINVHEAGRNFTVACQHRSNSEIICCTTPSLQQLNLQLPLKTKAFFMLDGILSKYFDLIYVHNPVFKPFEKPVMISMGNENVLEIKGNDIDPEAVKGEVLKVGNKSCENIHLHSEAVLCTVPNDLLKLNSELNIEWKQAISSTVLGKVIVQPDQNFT

B1: Anti-HER3/MET bispecific antibody P3-A (bispecific antibody, human IgG1, kappa)
heavy 1: not shown
light 1: QAVLTQPSSVSGAPGQRVTISCTGSSSNIGAGYDVHWYQQLPGTAPKLLIYGNSNRPSGVPDRFSGSKSGTSASLAITGLQAEDEADYYCQSYDSSLSGVFGTGTQLTVLGGGGSGIPPKIECLPIDISIDEGKVLTVASAFTGEPTPEVTWSTGGRKIHSQEQGRFHIENTDDSTTLTIKDVQKQDGGLYTLTLRNEFGSDSATVNIHIRSI
heavy 2: QVQLVQSGGGLVQPGRSLRLSCAASGFTFDDYAMHWVRQAPGKGLEWVSGISWNSGSIGYADSVKGRFTISRDNAKNSLYLQMNSLRAEDTALYYCAKEGLPGLDYWGQGTLVTVSSASTKGPSVFPLAPSSKSTSGGTAALGCLVKDYFPEPVTVSWNSGALTSGVHTFPAVLQSSGLYSLSSVVTVPSSSLGTQTYICNVNHKPSNTKVDKKVEPKSCDKTHTCPPCPAPELLGGPSVFLFPPKPKDTLMISRTPEVTCVVVDVSHEDPEVKFNWYVDGVEVHNAKTKPREEQYNSTYRVVSVLTVLHQDWLNGKEYKCKVSNKALPAPIEKTISKAKGQPREPQVCTLPPSREEMTKNQVSLSCAVKGFYPSDIAVEWESNGQPENNYKTTPPVLDSDGSFFLVSKLTVDKSRWQQGNVFSCSVMHEALHNHYTQKSLSLSPGK
light 2: DIQMTQSPSSLSASIGDRATITCRASQHVGTYLNWYQQKPGKTPKLLISGAANLQSGVPSRFSGSGSGTDFTLTISSLQPEDFATYYCQQSYNTPPFSFGQGTKVEIKRTVAAPSVFIFPPSDEQLKSGTASVVCLLNNFYPREAKVQWKVDNALQSGNSQESVTEQDSKDSTYSLSSTLTLSKADYEKHKVYACEVTHQGLSSPVTKSFNRGEC
Minimum cell viability (%) [1]: 16.4% | binding result [2]: binds

B2: Anti-HER3/MET bispecific antibody P8-A (bispecific antibody, human IgG1, kappa)
heavy 1: not shown
light 1: NFMLTQPHSVSESPGKTVTISCTRSSGSIAFDYVQWYQQRPGSAPTTVIYEDNQRPSGVPDRFSASIDSSSNSASLTISALKTEDEADYYCQSYDNSNSWVFGGGTKLTVLGGGGSGIPPKIECLPIDISIDEGKVLTVASAFTGEPTPEVTWSTGGRKIHSQEQGRFHIENTDDSTTLTIKDVQKQDGGLYTLTLRNEFGSDSATVNIHIRSI
heavy 2: B1 heavy 2
light 2: B1 light 2
Minimum cell viability (%) [1]: 12.1%

B3: Anti-HER3/MET bispecific antibody 5D5-A (bispecific antibody, human IgG1, kappa)
heavy 1: not shown
light 1: DIQMTQSPSSLSASVGDRVTITCKSSQSLLYTSSQKNYLAWYQQKPGKAPKLLIYWASTRESGVPSRFSGSGSGTDFTLTISSLQPEDFATYYCQQYYAYPWTFGQGTKVEIKGGGGSGIPPKIECLPIDISIDEGKVLTVASAFTGEPTPEVTWSTGGRKIHSQEQGRFHIENTDDSTTLTIKDVQKQDGGLYTLTLRNEFGSDSATVNIHIRSI
heavy 2: B1 heavy 2
light 2: B1 light 2
Minimum cell viability (%) [1]: 20.5% | binding result [2]: binds

B4: Anti-HER3/MET antibody-drug conjugate ADC-2 (bispecific antibody, human IgG1, kappa)
heavy 1: not shown
light 1: DIVLTQSPDSLAVSLGERATINCRADKSVSTSTYNYLHWYQQKPGQPPKLLIYLASNLASGVPDRFSGSGSGTDFTLTISSLQAEDVAVYYCQHSRDLPPTFGQGTKLEIKGGGGSGIPPKIECLPIDISIDEGKVLTVASAFTGEPTPEVTWSTGGRKIHSQEQGRFHIENTDDSTTLTIKDVQKQDGGLYTLTLRNEFGSDSATVNIHIRSI
heavy 2: B1 heavy 2
light 2: B1 light 2
modifications: compound 9-A on reduced cysteines, positions not given; compound 9-A (exatecan derivative linker-drug) on reduced cysteines, positions not given; target DAR 6 for the whole molecule
notes: target DAR 6; distribution of the drug over the chains not reported for ADC-2
Kd [3]: 19.7 nM | koff [3]: 0.0108 s⁻¹ | kon [3]: 546000 M⁻¹ s⁻¹

B5: Anti-HER3/MET bispecific antibody 2232-02 (S3-A) (bispecific antibody, human IgG1, kappa)
heavy 1: not shown
light 1: B4 light 1
heavy 2: B1 heavy 2
light 2: B1 light 2
EC50 [4]: 2.64 nM | Maximum fluorescence value [4]: 1870 | Minimum cell viability (%) [5]: 25.8%

B6: Anti-HER3/MET bispecific antibody A9-A (bispecific antibody, human IgG1, kappa)
heavy 1: not shown
light 1: EIVLTQSPGTLSLSPGERATLSCRASQSVSNNYLAWYQQKPGQAPRLLIFGASSRATGIPDRFSGSGSGTDFTLTISRLEPEDFAVYYCQQYDISPMYSFGQGTKLEMKGGGGSGIPPKIECLPIDISIDEGKVLTVASAFTGEPTPEVTWSTGGRKIHSQEQGRFHIENTDDSTTLTIKDVQKQDGGLYTLTLRNEFGSDSATVNIHIRSI
heavy 2: B1 heavy 2
light 2: B1 light 2
Minimum cell viability (%) [1]: 15.9% | binding result [2]: binds

B7: Antibody A N93Q (antibody, human IgG1, kappa, V domains shown)
VH: QVQLVQSGGGLVQPGRSLRLSCAASGFTFDDYAMHWVRQAPGKGLEWVSGISWNSGSIGYADSVKGRFTISRDNAKNSLYLQMNSLRAEDTALYYCAKEGLPGLDYWGQGTLVTVSS
VL: DIQMTQSPSSLSASIGDRATITCRASQHVGTYLNWYQQKPGKTPKLLISGAANLQSGVPSRFSGSGSGTDFTLTISSLQPEDFATYYCQQSYQTPPFSFGQGTKVEIKR
notes: Differs from antibody A only by N to Q at position 93 of VL
Kd [6]: 51.4 nM | koff [6]: 0.0295 s⁻¹ | kon [6]: 573000 M⁻¹ s⁻¹

B8: Antibody A N93S (antibody, human IgG1, kappa, V domains shown)
VH: B7 VH
VL: B7 VL with Q93S
notes: Differs from antibody A only by N to S at position 93 of VL
Kd [6]: 32.6 nM | koff [6]: 0.0215 s⁻¹ | kon [6]: 659000 M⁻¹ s⁻¹

B9: Antibody A N93T (antibody, human IgG1, kappa, V domains shown)
VH: B7 VH
VL: B7 VL with Q93T
notes: Differs from antibody A only by N to T at position 93 of VL
Kd [6]: 97.9 nM | koff [6]: 0.0329 s⁻¹ | kon [6]: 336000 M⁻¹ s⁻¹

B10: Antibody A T94V (antibody, human IgG1, kappa, V domains shown)
VH: B7 VH
VL: B7 VL with Q93N, T94V
notes: Differs from antibody A only by T to V at position 94 of VL
Kd [6]: 15 nM | koff [6]: 0.0108 s⁻¹ | kon [6]: 717000 M⁻¹ s⁻¹

B11: Anti-MET antibody S3 (antibody, human IgG2, kappa, V domains shown)
VH: QVQLVESGGGVVQPGRSLRLSCAASGFSLSNYGVHWVRQAPGKGLEWLAVIWSGGSTNYAAAFVSRLTISKDNSKNTVYLQMNSLRAEDTAVYYCARNHDNPYNYAMDYWGQGTTVTVSS
VL: DIVLTQSPDSLAVSLGERATINCRADKSVSTSTYNYLHWYQQKPGQPPKLLIYLASNLASGVPDRFSGSGSGTDFTLTISSLQAEDVAVYYCQHSRDLPPTFGQGTKLEIKR
Maximum fluorescence value [4]: 77 | Minimum cell viability (%) [5]: 97.3%

B12: Anti-MET antibody A13 (antibody, human IgG1, kappa, V domains shown)
VH: QVQLVQSGAEVKKPGASVKVSCEASGYTFTSYGFSWVRQAPGQGLEWMGWISASNGNTYYAQKLQGRVTMTTDTSTSSAYMELRSLRSDDTAVYYCARVYADYADYWGQGTLVTVSS
VL: DIQMTQSPSSVSASVGDRVTITCRASQGINTWLAWYQQKPGKAPKLLIYAASSLKSGVPSRFSGSGSGADFTLTISSLQPEDFATYYCQQANSFPLTFGGGTKVEIKR
Endocytosis ratio at 0 h (FACS) [7]: 0% | Endocytosis ratio at 0.5 h (FACS) [7]: 25.7% | Endocytosis ratio at 2 h (FACS) [7]: 45.7% | Endocytosis ratio at 6 h (FACS) [7]: 57.6% | Kd [8]: 6.55 nM | koff [8]: 0.000614 s⁻¹ | kon [8]: 93800 M⁻¹ s⁻¹

B13: Antibody A13 T31V (antibody, human IgG1, kappa, V domains shown)
VH: B12 VH
VL: B12 VL with T31V
notes: Differs from antibody A13 only by T to V at position 31 of VL
Kd [8]: 93.1 nM | koff [8]: 0.00521 s⁻¹ | kon [8]: 56000 M⁻¹ s⁻¹

B14: Antibody A13 N30Q (antibody, human IgG1, kappa, V domains shown)
VH: B12 VH
VL: B12 VL with N30Q
notes: Differs from antibody A13 only by N to Q at position 30 of VL
Kd [8]: 17.6 nM | koff [8]: 0.00146 s⁻¹ | kon [8]: 83000 M⁻¹ s⁻¹

B15: Antibody A13 N30T (antibody, human IgG1, kappa, V domains shown)
VH: B12 VH
VL: B12 VL with N30T
notes: Differs from antibody A13 only by N to T at position 30 of VL
Kd [8]: 17 nM | koff [8]: 0.0018 s⁻¹ | kon [8]: 106000 M⁻¹ s⁻¹

B16: Antibody A13 N30S (antibody, human IgG1, kappa, V domains shown)
VH: B12 VH
VL: B12 VL with N30S
notes: Differs from antibody A13 only by N to S at position 30 of VL
Kd [8]: 7.69 nM | koff [8]: 0.000776 s⁻¹ | kon [8]: 101000 M⁻¹ s⁻¹
